Here are results for three molecules from article PMC6513997, “PFA ependymoma-associated protein EZHIP inhibits PRC2 activity through a H3 K27M-like mechanism” (Nature Communications, 2019).

Primed or numbered codes have the meaning given here. Where no end group is shown, it is not given here. Biotin′ = not defined here

The target in assay [1] is native PRC2 purified from HeLa cells expressing FLAG-tagged EZH2 ( | human (endogenous in HeLa), UniProt Q15910 1-746). Kind of assay: steady-state enzyme kinetics (inhibition of methyltransferase activity); increasing oligonucleosome substrate with PRC2, SAM and varying EZHIP; Michaelis-Menten and Lineweaver-Burk curves fitted with competitive mode of inhibition. Particulars: both partners purified.

The target in assay [2] is recombinant PRC2 purified from SF9 cells (EZH2, SUZ12, EED, RBBP4) (human, UniProt Q15910 1-746; Q15022 1-739; O75530 1-441; Q09028 1-425). As to the kind of experiment: cell-based or functional assay.
recombinant PRC2 purified from SF9 cells (EZH2, SUZ12, EED, RBBP4), sequence (Q15910 whole entry, chain 1 of 4): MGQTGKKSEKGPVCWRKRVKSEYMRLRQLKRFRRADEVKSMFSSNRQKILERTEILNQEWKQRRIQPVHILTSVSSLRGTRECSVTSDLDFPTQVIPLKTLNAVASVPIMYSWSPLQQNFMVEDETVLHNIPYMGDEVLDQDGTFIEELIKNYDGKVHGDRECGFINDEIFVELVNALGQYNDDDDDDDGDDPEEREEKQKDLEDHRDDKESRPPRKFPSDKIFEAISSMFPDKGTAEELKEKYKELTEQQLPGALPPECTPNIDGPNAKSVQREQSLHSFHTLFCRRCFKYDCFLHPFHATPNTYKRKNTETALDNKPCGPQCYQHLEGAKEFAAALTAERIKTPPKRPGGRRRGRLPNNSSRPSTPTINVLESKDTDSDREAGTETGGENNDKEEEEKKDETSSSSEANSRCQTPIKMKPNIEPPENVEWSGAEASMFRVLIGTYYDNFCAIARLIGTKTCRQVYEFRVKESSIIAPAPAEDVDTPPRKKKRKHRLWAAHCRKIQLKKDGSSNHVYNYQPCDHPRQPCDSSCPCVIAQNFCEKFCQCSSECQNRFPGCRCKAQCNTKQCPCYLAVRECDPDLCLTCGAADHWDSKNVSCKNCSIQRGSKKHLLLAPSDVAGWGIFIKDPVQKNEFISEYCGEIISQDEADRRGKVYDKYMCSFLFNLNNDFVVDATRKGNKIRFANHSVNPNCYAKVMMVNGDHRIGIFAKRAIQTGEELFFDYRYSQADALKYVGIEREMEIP
recombinant PRC2 purified from SF9 cells (EZH2, SUZ12, EED, RBBP4), sequence (Q15022 whole entry, chain 2 of 4): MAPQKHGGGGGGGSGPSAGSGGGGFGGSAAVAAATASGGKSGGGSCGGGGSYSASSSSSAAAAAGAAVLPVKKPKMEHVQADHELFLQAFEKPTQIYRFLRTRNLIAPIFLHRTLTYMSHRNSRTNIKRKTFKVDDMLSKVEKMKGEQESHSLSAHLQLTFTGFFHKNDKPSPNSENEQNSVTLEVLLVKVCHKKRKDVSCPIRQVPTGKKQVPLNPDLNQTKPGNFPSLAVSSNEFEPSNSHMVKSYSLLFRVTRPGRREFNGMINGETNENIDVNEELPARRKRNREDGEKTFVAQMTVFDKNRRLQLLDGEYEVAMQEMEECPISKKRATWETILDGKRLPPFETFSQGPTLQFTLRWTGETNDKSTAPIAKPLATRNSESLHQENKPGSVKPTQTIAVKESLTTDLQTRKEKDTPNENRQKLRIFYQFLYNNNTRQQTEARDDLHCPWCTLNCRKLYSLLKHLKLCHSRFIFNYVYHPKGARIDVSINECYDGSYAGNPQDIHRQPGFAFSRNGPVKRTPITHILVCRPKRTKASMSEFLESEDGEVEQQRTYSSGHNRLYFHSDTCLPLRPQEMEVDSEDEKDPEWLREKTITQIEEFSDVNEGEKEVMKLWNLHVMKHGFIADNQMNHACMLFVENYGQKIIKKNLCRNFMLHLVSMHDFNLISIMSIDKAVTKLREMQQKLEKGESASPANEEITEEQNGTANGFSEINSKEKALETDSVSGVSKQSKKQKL
recombinant PRC2 purified from SF9 cells (EZH2, SUZ12, EED, RBBP4), sequence (O75530 whole entry, chain 3 of 4): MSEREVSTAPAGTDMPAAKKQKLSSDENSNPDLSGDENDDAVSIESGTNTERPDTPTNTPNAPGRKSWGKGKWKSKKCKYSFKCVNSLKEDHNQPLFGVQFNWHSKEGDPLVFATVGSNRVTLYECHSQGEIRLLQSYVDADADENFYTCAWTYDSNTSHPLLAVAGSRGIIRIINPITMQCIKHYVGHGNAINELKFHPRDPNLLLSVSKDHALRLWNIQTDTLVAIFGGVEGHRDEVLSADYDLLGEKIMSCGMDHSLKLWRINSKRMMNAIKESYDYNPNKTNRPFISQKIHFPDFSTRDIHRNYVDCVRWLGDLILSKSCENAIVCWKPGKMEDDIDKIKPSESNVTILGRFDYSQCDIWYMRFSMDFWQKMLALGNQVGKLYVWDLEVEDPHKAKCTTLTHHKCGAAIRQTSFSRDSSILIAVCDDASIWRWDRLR
recombinant PRC2 purified from SF9 cells (EZH2, SUZ12, EED, RBBP4), sequence (Q09028 whole entry, chain 4 of 4): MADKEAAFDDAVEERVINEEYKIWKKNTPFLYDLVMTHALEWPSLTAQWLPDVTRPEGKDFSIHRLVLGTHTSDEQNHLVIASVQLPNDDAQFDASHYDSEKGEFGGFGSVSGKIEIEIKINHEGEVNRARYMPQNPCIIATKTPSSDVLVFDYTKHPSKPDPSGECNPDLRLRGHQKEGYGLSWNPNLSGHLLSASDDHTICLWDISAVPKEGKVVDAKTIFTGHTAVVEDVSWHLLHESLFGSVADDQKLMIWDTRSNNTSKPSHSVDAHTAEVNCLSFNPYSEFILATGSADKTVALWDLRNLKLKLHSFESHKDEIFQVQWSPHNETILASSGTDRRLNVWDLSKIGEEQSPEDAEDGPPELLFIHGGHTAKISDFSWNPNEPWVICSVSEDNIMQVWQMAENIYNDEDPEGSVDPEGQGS

native PRC2 purified from HeLa cells expressing FLAG-tagged EZH2, sequence (Q15910 whole entry, chain 1 of 4): as the sequence (Q15910 whole entry, chain 1 of 4) above
native PRC2 purified from HeLa cells expressing FLAG-tagged EZH2, sequence (Q15022 whole entry, chain 2 of 4, further chain): as the sequence (Q15022 whole entry, chain 2 of 4) above
native PRC2 purified from HeLa cells expressing FLAG-tagged EZH2, sequence (O75530 2-441, chain 3 of 4, further chain): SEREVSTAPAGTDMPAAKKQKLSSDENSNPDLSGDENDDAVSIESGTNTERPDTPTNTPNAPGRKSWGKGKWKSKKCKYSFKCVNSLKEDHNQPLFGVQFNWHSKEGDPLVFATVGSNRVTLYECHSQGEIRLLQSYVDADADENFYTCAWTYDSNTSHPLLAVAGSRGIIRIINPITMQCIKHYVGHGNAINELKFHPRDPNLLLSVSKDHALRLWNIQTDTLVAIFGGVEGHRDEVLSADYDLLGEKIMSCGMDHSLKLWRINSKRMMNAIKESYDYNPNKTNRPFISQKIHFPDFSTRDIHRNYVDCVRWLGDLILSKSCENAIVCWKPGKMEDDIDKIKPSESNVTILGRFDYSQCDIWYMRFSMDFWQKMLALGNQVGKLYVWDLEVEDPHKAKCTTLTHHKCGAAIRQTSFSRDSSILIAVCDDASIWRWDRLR
native PRC2 purified from HeLa cells expressing FLAG-tagged EZH2, sequence (Q09028 2-425, chain 4 of 4, further chain): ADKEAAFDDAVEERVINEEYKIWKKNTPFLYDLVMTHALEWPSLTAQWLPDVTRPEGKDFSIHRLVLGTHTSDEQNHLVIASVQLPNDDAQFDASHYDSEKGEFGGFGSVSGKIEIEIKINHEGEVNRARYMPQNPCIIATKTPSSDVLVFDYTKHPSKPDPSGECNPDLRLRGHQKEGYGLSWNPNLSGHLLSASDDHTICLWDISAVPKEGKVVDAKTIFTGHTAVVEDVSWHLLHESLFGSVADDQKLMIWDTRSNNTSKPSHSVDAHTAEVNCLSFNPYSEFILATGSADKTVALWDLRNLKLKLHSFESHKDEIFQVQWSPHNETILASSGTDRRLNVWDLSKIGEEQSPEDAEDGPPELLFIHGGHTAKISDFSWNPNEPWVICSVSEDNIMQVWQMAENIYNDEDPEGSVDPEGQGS

B1: recombinant EZHIP purified from SF9 cells (natural protein)
chain: MATQSDMEKEQKHQQDEGQGGLNNETALASGDACGTGNQDPAASVTTVSSQASPSGGAALSSSTAGSSAAAATSAAIFITDEASGLPIIAAVLTERHSDRQDCRSPHEVFGCVVPEGGSQAAVGPQKATGHADEHLAQTKSPGNSRRRKQPCRNQAAPAQKPPGRRLFPEPLPPSSPGFRPSSYPCSGASTSSQATQPGPALLSHASEARPATRSRITLVASALRRRASGPGPVIRGCTAQPGPAFPHRATHLDPARLSPESAPGPARRGRASVPGPARRGCDSAPGPARRGRDSAPVSAPRGRDSAPGSARRGRDSAPGPALRVRTARSDAGHRSTSTTPGTGLRSRSTQQRSALLSRRSLSGSADENPSCGTGSERLAFQSRSGSPDPEVPSRASPPVWHAVRMRASSPSPPGRFFLPIPQQWDESSSSSYASNSSSPSRSPGLSPSSPSPEFLGLRSISTPSPESLRYALMPEFYALSPVPPEEQAEIESTAHPATPPEP
In assay [1], B1 displayed a Ki of 0.00222 µM.

B2: biotinylated EZHIP (403-422) peptide, K27M-like peptide (peptide)
peptide: AVRMRASSPSPPGRFFLPIPK-{Biotin′}
modifications: not fully specified (residue 21); printed as AVRMRASSPSPPGRFFLPIPK-biotin
As for B2, in assay [2], the “IC50 of PRC2 methyltransferase activity on H3 18-37 peptide, EZHIP KLP titrated, without H3K27me3 stimulatory peptide” value amounted to 35 µM and the “IC50 of rPRC2-Ezh2 methyltransferase activity on H3 (18-37) peptide substrate, KLP (403-423) peptide titrated, with H3K27me3 stimulatory peptide” value came out at 4.1 µM.

B3: biotinylated H3.3 K27M (18-37) peptide (peptide)
peptide: KQLATKAARMSAPSTGGVKKYK
modifications: not fully specified; biotin on the added C-terminal K
For the molecule B3, the “IC50 of rPRC2-Ezh2 methyltransferase activity on H3 (18-37) peptide substrate, H3 K27M (18-37) peptide titrated, with H3K27me3 stimulatory peptide” value in assay [2] is 27.9 µM.
